From doi:10.1101/460097 come the findings set out here.

The term stoichiometry N denotes a count of units in the complex or per binding partner.

The target of assay [1] is mouse (Mus musculus) PCDH15 EC10-MAD12 produced in mammalian cells (mouse (Mus musculus)). The experiment in a line: AUC.
The target is the same in assay [2]. The experiment in a line: SEC-MALS.
In assay [3] the target is mouse (Mus musculus) PCDH15 EC10-MAD12, refolded from bacteria (mouse (Mus musculus)). The experiment in a line: SEC-SAXS. On the technique in general: SEC sorts molecules by how far they enter the pores of the column.
Assay [4] has the same target. The experiment in a line: SEC-MALS.
The target in assay [5] is pig (Sus scrofa) PCDH15 EC10-MAD12 (pig (Sus scrofa)). Description: AUC.
Assay [6] shares this target. Description: SEC-SAXS.
The target is the same in assay [7]. The experiment in a line: SEC-MALS.

With “mouse (Mus musculus) PCDH15 EC10-MAD12 produced in mammalian cells (domain or fragment)”, the stoichiometry N in assay [1] and in assay [2] was 2 throughout.
As for “mouse (Mus musculus) PCDH15 EC10-MAD12, refolded from bacteria (domain or fragment)”, the stoichiometry N in assay [3] and in assay [4] was 2 each time.
With “pig (Sus scrofa) PCDH15 EC10-MAD12 (domain or fragment)”, the stoichiometry N in assay [5], in assay [6] and in assay [7] was 2 throughout.
